Values joined by “and” are separate entries in the source; they are usually repeats but may differ in a detail not shown here. Equal values may be shown once.

For assay [1], the target named is fibrinogen fragment D (human). The assay is described as follows: native gel or EMSA; incubated 30 min at 25 °C in 50 mM Hepes, 110 mM NaCl, 5 mM CaCl2, 1 mg/ml PEG-8000, 10 μM FFR-CK and FPR-CK with molar excess of frag D; 6% Tris–glycine gel without SDS, 4 °C; GelCode Blue and fluorescence. (A gel shift assay detects complexes by their altered migration in electrophoresis.)

For assay [2], the target named is fibrinogen fragment D (human). Description: other fluorescence titration; fluorescein-labeled construct at fixed concentration titrated with frag D; fluorescence intensity; 25 °C; 50 mM Hepes, 110 mM NaCl, 5 mM CaCl2, 1 mg/ml PEG-8000, pH 7.4, 10 μM FPR-CK; quadratic fit; n fixed to 1 for the Ala constructs and MP.
Assay [3] addresses fibrinogen fragment D (human). The assay is described as follows: other fluorescence titration; fluorescence intensity; 20 mM sodium phosphate, 150 mM NaCl, 1 mg/ml PEG-8000, 10 μM FPR-CK, pH 7.4; n fixed to 1.
In assay [4] the target is fibrinogen fragment D (human). Description: other fluorescence titration; fluorescence intensity; 20 mM sodium phosphate, 150 mM NaCl, 1 mg/ml PEG-8000, 10 μM FPR-CK, pH 7.0; n fixed to 1.
Assay [5] deals with fibrinogen fragment D (human). The assay is described as follows: fluorescence polarisation; fluorescence anisotropy; [5F]PR–(R1 → R7) titrated with frag D; 'the same buffer'; quadratic fit, n not fixed; independent, noncooperative sites assumed.
Assay [6] deals with fibrinogen fragment D (human). The assay is described as follows: fluorescence polarisation; competitive fluorescence anisotropy; unlabeled construct titrated into mixtures of fixed [5F]PR–(R1 → R7) with two frag D concentrations; cubic equation, fit together with the direct titrations.
Assay [7] deals with fibrinogen fragment D fragment D (Homo sapiens) (UniProt P02671). The settings on record: cited from earlier work.
Chain of fibrinogen fragment D fragment D (Homo sapiens) (P02671 20-866, chain 1 of 3): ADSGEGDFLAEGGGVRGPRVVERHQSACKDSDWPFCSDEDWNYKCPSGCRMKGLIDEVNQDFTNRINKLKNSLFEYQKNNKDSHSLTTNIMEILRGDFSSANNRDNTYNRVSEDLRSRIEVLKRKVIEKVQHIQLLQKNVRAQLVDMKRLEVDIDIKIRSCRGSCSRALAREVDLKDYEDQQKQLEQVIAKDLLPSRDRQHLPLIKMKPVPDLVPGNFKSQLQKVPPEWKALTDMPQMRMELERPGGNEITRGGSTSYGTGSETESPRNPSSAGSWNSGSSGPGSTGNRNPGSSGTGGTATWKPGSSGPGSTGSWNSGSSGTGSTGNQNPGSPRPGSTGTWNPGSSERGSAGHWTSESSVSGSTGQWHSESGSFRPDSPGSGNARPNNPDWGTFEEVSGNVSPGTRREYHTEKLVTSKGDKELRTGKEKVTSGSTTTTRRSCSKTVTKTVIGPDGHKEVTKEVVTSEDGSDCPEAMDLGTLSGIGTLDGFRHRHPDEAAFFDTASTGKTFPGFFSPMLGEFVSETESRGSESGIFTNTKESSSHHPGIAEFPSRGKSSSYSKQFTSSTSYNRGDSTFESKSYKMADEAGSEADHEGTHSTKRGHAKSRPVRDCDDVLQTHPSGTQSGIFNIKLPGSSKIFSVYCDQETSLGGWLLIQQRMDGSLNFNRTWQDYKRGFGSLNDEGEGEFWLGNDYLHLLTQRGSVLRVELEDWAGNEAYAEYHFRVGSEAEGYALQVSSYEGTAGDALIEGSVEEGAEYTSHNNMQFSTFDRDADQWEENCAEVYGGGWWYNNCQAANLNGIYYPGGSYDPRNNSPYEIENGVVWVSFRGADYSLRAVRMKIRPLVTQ
Chain of fibrinogen fragment D fragment D (Homo sapiens) (P02675 31-491, chain 2 of 3, further chain): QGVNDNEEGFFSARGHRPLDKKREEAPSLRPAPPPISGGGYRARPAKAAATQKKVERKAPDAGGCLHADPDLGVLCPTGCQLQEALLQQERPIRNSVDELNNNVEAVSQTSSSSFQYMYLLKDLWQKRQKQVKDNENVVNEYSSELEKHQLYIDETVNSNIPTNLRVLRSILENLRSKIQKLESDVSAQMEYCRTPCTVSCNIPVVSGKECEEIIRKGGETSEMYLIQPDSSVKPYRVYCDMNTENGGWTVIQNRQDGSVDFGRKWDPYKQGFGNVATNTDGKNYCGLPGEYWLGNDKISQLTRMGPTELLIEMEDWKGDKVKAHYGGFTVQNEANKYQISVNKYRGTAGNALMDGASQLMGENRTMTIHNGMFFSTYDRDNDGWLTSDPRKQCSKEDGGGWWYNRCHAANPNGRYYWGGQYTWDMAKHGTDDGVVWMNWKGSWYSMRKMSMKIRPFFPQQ
Chain of fibrinogen fragment D fragment D (Homo sapiens) (P02679 27-453, chain 3 of 3, further chain): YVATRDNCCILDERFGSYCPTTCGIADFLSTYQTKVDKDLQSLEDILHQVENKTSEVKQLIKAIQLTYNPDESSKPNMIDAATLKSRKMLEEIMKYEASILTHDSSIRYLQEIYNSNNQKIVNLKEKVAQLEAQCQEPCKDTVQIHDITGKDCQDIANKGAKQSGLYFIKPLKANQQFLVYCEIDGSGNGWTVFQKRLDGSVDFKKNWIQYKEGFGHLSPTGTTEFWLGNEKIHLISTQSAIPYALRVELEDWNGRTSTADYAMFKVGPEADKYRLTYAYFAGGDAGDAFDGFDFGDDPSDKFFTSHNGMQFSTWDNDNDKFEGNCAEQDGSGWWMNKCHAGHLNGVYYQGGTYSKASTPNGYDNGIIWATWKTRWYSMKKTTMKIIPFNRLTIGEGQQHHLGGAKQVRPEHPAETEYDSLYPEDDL
Assay [8] concerns the target staphylocoagulase SC(1–660), full-length (Staphylococcus aureus Newman D2 Tager 104). The assay is described as follows: native gel or EMSA; incubated 30 min at 25 °C in 50 mM Hepes, 110 mM NaCl, 5 mM CaCl2, 1 mg/ml PEG-8000, 10 μM FFR-CK and FPR-CK with molar excess of frag D; 6% Tris–glycine gel without SDS, 4 °C; GelCode Blue and fluorescence.

As to “staphylocoagulase SC(1–660), full-length (natural protein)”, in assay [1], the stoichiometry N (frag D per SC(1–660)) was 5 and 6.

Turning to [5F]PR–R7 (domain or fragment), the Kd (as a rule, the equilibrium constant for the complex coming apart) in assay [2] was 112 nM; in assay [3], 27 nM; in assay [4], 3000 nM. This substance returned a stoichiometry N (mol frag D/mol repeat) in assay [2] of 0.8.

“[5F]PR–(R1 → R7), full-length C-terminal repeat construct (domain or fragment)”: in assay [1], the stoichiometry N (frag D per construct) worked out at 7. Further, the stoichiometry N (mol frag D/mol repeat) in assay [5] is 5.2 and 4.8 and 5.1.

As for [5F]PR–R7-SETNA (domain or fragment), in assay [2], the Kd amounted to 120 nM.

[5F]PR–R1R6R7 (domain or fragment) yielded a stoichiometry N (frag D per construct) in assay [1] of 3.

Regarding [5F]PR–R1 (domain or fragment), in assay [2], the stoichiometry N (mol frag D/mol repeat) was 1.

As for “PR–R3R6R7 (unlabeled competitor) (domain or fragment)”, in assay [6], the Kd worked out at 42 nM and the stoichiometry N (mol frag D/mol repeat) is 3.

On to “staphylocoagulase PR-R1 (from UniProt P07767)”, for which the Kd in assay [7] is 36 nM.

On to “PR–R1R6R7 (unlabeled competitor) (domain or fragment)”, for which, in assay [6], the Kd worked out at 8 nM and the stoichiometry N (mol frag D/mol repeat) came out at 3.

In assay [2], [5F]PR–R3 (domain or fragment) came in with a Kd of 99 nM and a stoichiometry N (mol frag D/mol repeat) of 1.1.

Consider “[5F]ProT, prothrombin labeled at the active site with 5-fluorescein (natural protein)”, for which, in assay [8], the stoichiometry N – broadly, the number of molecules, sites or subunits per partner or assembly – amounted to 1 mol/mol.

“PR–R3R4R7 (unlabeled competitor) (domain or fragment)”: in assay [6], the Kd is 42 nM and the stoichiometry N (mol frag D/mol repeat) was found to be 2.8.

[5F]PR–R1R2R3 (domain or fragment) gave a stoichiometry N (frag D per construct) in assay [1] of 3.

For “PR–R1R2R3 (unlabeled competitor) (domain or fragment)”, in assay [6], the stoichiometry N (mol frag D/mol repeat) was 3.3 and 3.5 and 2.5.

In assay [2], [5F]PR–R6 (domain or fragment) had a Kd of 115 nM and a stoichiometry N (mol frag D/mol repeat) of 0.8.

In assay [2], [5F]PR–R2 (domain or fragment) had a Kd of 130 nM and a stoichiometry N (mol frag D/mol repeat) of 0.9.

The values are drawn from PMC8761706.
